The source of these data is patent publication US20180214548A1.

The target in experiment [1] is human PD-1^ECD-hFc protein (Immunogen A) (human) (UniProt Q15116). Kind of experiment: ELISA, coated PD-1ECD-hFc; biotinylated protein 0.008 ug/mL.
For experiment [2] the target is unchanged. Kind of experiment: ELISA, coated PD-1ECD-hFc; biotinylated protein 0.2 ug/mL.
Experiment [3] shares this target. Kind of experiment: ELISA, coated PD-1ECD-hFc; biotinylated protein 0.0016 ug/mL.
Experiment [4] has the same target. Kind of experiment: ELISA, coated PD-1ECD-hFc; biotinylated protein 0.04 ug/mL.
For experiment [5] the target is unchanged. Put plainly: ELISA, coated PD-1ECD-hFc; biotinylated protein 1 ug/mL.
The target is the same in experiment [6]. Put plainly: ELISA, coated PD-1ECD-hFc; biotinylated protein 0.00001 ug/mL.
Experiment [7] shares this target. Put plainly: ELISA, coated PD-1ECD-hFc; biotinylated protein 0.0001 ug/mL.
For experiment [8] the target is unchanged. Kind of experiment: ELISA, coated PD-1ECD-hFc; biotinylated protein 0.0003 ug/mL.
In experiment [9] the target is full length human PD-1 on cells (human) (UniProt Q15116). Kind of experiment: flow cytometry, CHO-K1-hPD-1 cells; antibody 0.01 nM.
Chain of full length human PD-1 on cells (human) (Q15116 25-288 limits assumed): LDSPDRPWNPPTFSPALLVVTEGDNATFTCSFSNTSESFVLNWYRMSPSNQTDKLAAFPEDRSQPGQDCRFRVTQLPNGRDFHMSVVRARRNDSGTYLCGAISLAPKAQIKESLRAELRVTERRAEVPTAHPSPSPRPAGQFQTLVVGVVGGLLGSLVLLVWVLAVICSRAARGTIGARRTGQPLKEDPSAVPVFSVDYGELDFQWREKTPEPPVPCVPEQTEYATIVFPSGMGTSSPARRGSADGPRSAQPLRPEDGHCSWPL
Experiment [10] addresses cyno PD-1^ECD-hFc protein (cyno monkey) (UniProt B0LAJ3). Put plainly: ELISA, coated cyno PD-1ECD-hFc; antibody 0.00001 nM.
Experiment [11] addresses full length human PD-1 on cells (human) (UniProt Q15116). Kind of experiment: flow cytometry, CHO-K1-hPD-1 cells; antibody 0.00001 nM.
For experiment [12], the target named is cyno PD-1^ECD-hFc protein (cyno monkey) (UniProt B0LAJ3). Put plainly: ELISA, coated cyno PD-1ECD-hFc; antibody 0.0001 nM.
Chain of cyno PD-1^ECD-hFc protein (cyno monkey) (B0LAJ3 entry or part of it limits assumed): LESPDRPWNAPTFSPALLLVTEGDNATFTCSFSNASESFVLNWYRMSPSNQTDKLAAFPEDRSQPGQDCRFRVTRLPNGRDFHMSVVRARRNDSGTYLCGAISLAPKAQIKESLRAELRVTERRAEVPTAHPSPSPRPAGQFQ
The target of the next experiment is CD28 (human) (UniProt P10747). Put plainly: ELISA, coated protein 1 ug/mL; antibody concentration not stated.
Chain of CD28 (human) (P10747 19-152 limits assumed): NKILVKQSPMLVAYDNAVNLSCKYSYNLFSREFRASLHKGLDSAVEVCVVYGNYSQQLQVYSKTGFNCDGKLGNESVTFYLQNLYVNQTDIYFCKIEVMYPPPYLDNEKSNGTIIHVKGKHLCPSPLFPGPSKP
The target in another experiment is CTLA4 (human) (UniProt P16410). Described as above.
Chain of CTLA4 (human) (P16410 37-162 limits assumed): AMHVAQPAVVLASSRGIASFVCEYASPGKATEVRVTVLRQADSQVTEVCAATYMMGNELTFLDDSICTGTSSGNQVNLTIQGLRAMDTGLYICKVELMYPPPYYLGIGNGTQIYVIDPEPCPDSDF
The target in experiment [13] is human PD-1^ECD-hFc protein (Immunogen A) (human) (UniProt Q15116). The experiment is described as above.
The next experiment concerns the target ICOS (human) (UniProt Q9Y6W8). The experiment is described as above.
The next experiment deals with B7-1 (human) (UniProt P33681). Described as above.
Chain of B7-1 (human) (P33681 35-242 limits assumed): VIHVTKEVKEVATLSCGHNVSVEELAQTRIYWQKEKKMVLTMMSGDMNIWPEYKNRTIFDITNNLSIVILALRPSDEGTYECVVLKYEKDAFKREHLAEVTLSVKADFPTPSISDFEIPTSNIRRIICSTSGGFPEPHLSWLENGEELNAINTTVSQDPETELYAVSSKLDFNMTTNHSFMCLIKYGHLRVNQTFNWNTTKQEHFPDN
Experiment [14] concerns the target human PD-1, full length, on cells (human) (UniProt Q15116). Kind of experiment: cell-based or functional assay.
Experiment [15] deals with human PD-1^ECD-hFc protein (Immunogen A) (human) (UniProt Q15116). Put plainly: ELISA, coated human PD-1ECD-hFc; antibody 0.00001 nM.
Experiment [16] addresses full length human PD-1 on cells (human) (UniProt Q15116). Put plainly: flow cytometry, CHO-K1-hPD-1 cells; antibody 0.0001 nM.
Experiment [17] addresses human PD-1^ECD-hFc protein (Immunogen A) (human) (UniProt Q15116). Kind of experiment: ELISA, coated human PD-1ECD-hFc; antibody 0.001 nM.
Experiment [18] concerns the target full length human PD-1 on cells (human) (UniProt Q15116). Put plainly: flow cytometry, CHO-K1-hPD-1 cells; antibody 0.001 nM.
Experiment [19] has as its target cyno PD-1^ECD-hFc protein (cyno monkey) (UniProt B0LAJ3). Put plainly: ELISA, coated cyno PD-1ECD-hFc; antibody 0.001 nM.
The target of experiment [20] is human PD-1^ECD-hFc protein (Immunogen A) (human) (UniProt Q15116). Kind of experiment: ELISA, coated human PD-1ECD-hFc; antibody 0.0001 nM.

Chain of human PD-1, full length, on cells (human) (Q15116 25-288): as the sequence (Q15116 25-288 limits assumed) above
Chain of human PD-1^ECD-hFc protein (Immunogen A) (human) (Q15116 25-167): as the sequence (B0LAJ3 entry or part of it limits assumed) above, with E2D, A10P, L19V, A35T, R75Q counted along it
Chain of ICOS (human) (Q9Y6W8 21-140 limits assumed): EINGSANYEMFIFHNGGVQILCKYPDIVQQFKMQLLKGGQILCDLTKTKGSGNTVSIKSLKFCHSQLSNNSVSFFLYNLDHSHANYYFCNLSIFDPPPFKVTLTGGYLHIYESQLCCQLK

With “control protein (biotinylated non-PD-L1^ECD-hFc)”, the OD450 nm in [1] was determined as 0.14; in experiment [2] it was 0.095; in experiment [3] it was 0.195; in [4], 0.09; in experiment [5] it was 0.13; in experiment [6] it was 0.205. Further, the OD450 nm in [7] was found to be 0.32; in experiment [8], 0.195.

In the case of IgG control (human IgG) (antibody), the Mean fluorescence intensity came to 2.9 in experiment [9], 2.7 in experiment [11], 3.1 in experiment [16] and 2.9 in experiment [18]. Also, the OD450 nm in experiment [10] came to 0.116; in [12], 0.11; with CD28 (human), 0.064; in the experiment with CTLA4 (human), 0.062; in experiment [13], 0.082; with ICOS (human) it was 0.142. Also, the OD450 nm with B7-1 (human) came to 0.07; in [15], 0.287; in experiment [17] it was 0.311; in [19], 0.106; in experiment [20], 0.298. Besides, the IFN-γ release, mixed lymphocyte reaction (PBMC donor-2), antibody 0.01 µg/mL in experiment [14] was 353 pg/mL. This substance returned an IFN-γ release, mixed lymphocyte reaction (PBMC donor-2), antibody 0.1 µg/mL in experiment [14] of 281 pg/mL. In addition, the IFN-γ release, mixed lymphocyte reaction (PBMC donor-2), antibody 1 µg/mL in experiment [14] amounted to 127 pg/mL.
